B1: P17655 (protein, UniProt P17655 1-700, looked up)
chain: MAGIAAKLAKDREAAEGLGSHDRAIKYLNQDYEALRNECLEAGTLFQDPSFPAIPSALGFKELGPYSSKTRGIEWKRPTEICADPQFIIGGATRTDICQGALGDCWLLAAIASLTLNEEILARVVPLNQSFQENYAGIFHFQFWQYGEWVEVVVDDRLPTKDGELLFVHSAEGSEFWSALLEKAYAKINGCYEALSGGATTEGFEDFTGGIAEWYELKKPPPNLFKIIQKALQKGSLLGCSIDITSAADSEAITFQKLVKGHAYSVTGAEEVESNGSLQKLIRIRNPWGEVEWTGRWNDNCPSWNTIDPEERERLTRRHEDGEFWMSFSDFLRHYSRLEICNLTPDTLTSDTYKKWKLTKMDGNWRRGSTAGGCRNYPNTFWMNPQYLIKLEEEDEDEEDGESGCTFLVGLIQKHRRRQRKMGEDMHTIGFGIYEVPEELSGQTNIHLSKNFFLTNRARERSDTFINLREVLNRFKLPPGEYILVPSTFEPNKDGDFCIRVFSEKKADYQAVDDEIEANLEEFDISEDDIDDGFRRLFAQLAGEDAEISAFELQTILRRVLAKRQDIKSDGFSIETCKIMVDMLDSDGSGKLGLKEFYILWTKIQKYQKIYREIDVDRSGTMNSYEMRKALEEAGFKMPCQLHQVIVARFADDQLIIDFDNFVRCLVRLETLFKIFKQLDPENTGTIELDLISWLCFSVL
modifications: full-length
B2: Q07065 (protein, UniProt Q07065 1-602, looked up)
chain: MPSAKQRGSKGGHGAASPSEKGAHPSGGADDVAKKPPPAPQQPPPPPAPHPQQHPQQHPQNQAHGKGGHRGGGGGGGKSSSSSSASAAAAAAAASSSASCSRRLGRALNFLFYLALVAAAAFSGWCVHHVLEEVQQVRRSHQDFSRQREELGQGLQGVEQKVQSLQATFGTFESILRSSQHKQDLTEKAVKQGESEVSRISEVLQKLQNEILKDLSDGIHVVKDARERDFTSLENTVEERLTELTKSINDNIAIFTEVQKRSQKEINDMKAKVASLEESEGNKQDLKALKEAVKEIQTSAKSREWDMEALRSTLQTMESDIYTEVRELVSLKQEQQAFKEAADTERLALQALTEKLLRSEESVSRLPEEIRRLEEELRQLKSDSHGPKEDGGFRHSEAFEALQQKSQGLDSRLQHVEDGVLSMQVASARQTESLESLLSKSQEHEQRLAALQGRLEGLGSSEADQDGLASTVRSLGETQLVLYGDVEELKRSVGELPSTVESLQKVQEQVHTLLSQDQAQAARLPPQDFLDRLSSLDNLKASVSQVEADLKMLRTAVDSLVAYSVKIETNENNLESAKGLLDDLRNDLDRLFVKVEKIHEKV
modifications: full-length
B3: Q6NZI2 (protein, UniProt Q6NZI2 1-390, looked up)
chain: MEDPTLYIVERPLPGYPDAEAPEPSSAGAQAAEEPSGAGSEELIKSDQVNGVLVLSLLDKIIGAVDQIQLTQAQLEERQAEMEGAVQSIQGELSKLGKAHATTSNTVSKLLEKVRKVSVNVKTVRGSLERQAGQIKKLEVNEAELLRRRNFKVMIYQDEVKLPAKLSISKSLKESEALPEKEGEELGEGERPEEDAAALELSSDEAVEVEEVIEESRAERIKRSGLRRVDDFKKAFSKEKMEKTKVRTRENLEKTRLKTKENLEKTRHTLEKRMNKLGTRLVPAERREKLKTSRDKLRKSFTPDHVVYARSKTAVYKVPPFTFHVKKIREGQVEVLKATEMVEVGADDDEGGAERGEAGDLRRGSSPDVHALLEITEESDAVLVDKSDSD
modifications: full-length
B4: Q86YD1 (protein, UniProt Q86YD1 1-416, looked up)
chain: MVRPRRAPYRSGAGGPLGGRGRPPRPLVVRAVRSRSWPASPRGPQPPRIRARSAPPMEGARVFGALGPIGPSSPGLTLGGLAVSEHRLSNKLLAWSGVLEWQEKRRPYSDSTAKLKRTLPCQAYVNQGENLETDQWPQKLIMQLIPQQLLTTLGPLFRNSQLAQFHFTNRDCDSLKGLCRIMGNGFAGCMLFPHISPCEVRVLMLLYSSKKKIFMGLIPYDQSGFVSAIRQVITTRKQAVGPGGVNSGPVQIVNNKFLAWSGVMEWQEPRPEPNSRSKRWLPSHVYVNQGEILRTEQWPRKLYMQLIPQQLLTTLVPLFRNSRLVQFHFTKDLETLKSLCRIMDNGFAGCVHFSYKASCEIRVLMLLYSSEKKIFIGLIPHDQGNFVNGIRRVIANQQQVLQRNLEQEQQQRGMGG
modifications: full-length
B5: P51784 (protein, UniProt P51784 1-963, looked up)
chain: MAVAPRLFGGLCFRFRDQNPEVAVEGRLPISHSCVGCRRERTAMATVAANPAAAAAAVAAAAAVTEDREPQHEELPGLDSQWRQIENGESGRERPLRAGESWFLVEKHWYKQWEAYVQGGDQDSSTFPGCINNATLFQDEINWRLKEGLVEGEDYVLLPAAAWHYLVSWYGLEHGQPPIERKVIELPNIQKVEVYPVELLLVRHNDLGKSHTVQFSHTDSIGLVLRTARERFLVEPQEDTRLWAKNSEGSLDRLYDTHITVLDAALETGQLIIMETRKKDGTWPSAQLHVMNNNMSEEDEDFKGQPGICGLTNLGNTCFMNSALQCLSNVPQLTEYFLNNCYLEELNFRNPLGMKGEIAEAYADLVKQAWSGHHRSIVPHVFKNKVGHFASQFLGYQQHDSQELLSFLLDGLHEDLNRVKKKEYVELCDAAGRPDQEVAQEAWQNHKRRNDSVIVDTFHGLFKSTLVCPDCGNVSVTFDPFCYLSVPLPISHKRVLEVFFIPMDPRRKPEQHRLVVPKKGKISDLCVALSKHTGISPERMMVADVFSHRFYKLYQLEEPLSSILDRDDIFVYEVSGRIEAIEGSREDIVVPVYLRERTPARDYNNSYYGLMLFGHPLLVSVPRDRFTWEGLYNVLMYRLSRYVTKPNSDDEDDGDEKEDDEEDKDDVPGPSTGGSLRDPEPEQAGPSSGVTNRCPFLLDNCLGTSQWPPRRRRKQLFTLQTVNSNGTSDRTTSPEEVHAQPYIAIDWEPEMKKRYYDEVEAEGYVKHDCVGYVMKKAPVRLQECIELFTTVETLEKENPWYCPSCKQHQLATKKLDLWMLPEILIIHLKRFSYTKFSREKLDTLVEFPIRDLDFSEFVIQPQNESNPELYKYDLIAVSNHYGGMRDGHYTTFACNKDSGQWHYFDDNSVSPVNENQIESKAAYVLFYQRQDVARRLLSPAGSSGAPASPACSSPPSSEFMDVN
modifications: full-length
B6: P29508 (protein, UniProt P29508 1-390, looked up)
chain: MNSLSEANTKFMFDLFQQFRKSKENNIFYSPISITSALGMVLLGAKDNTAQQIKKVLHFDQVTENTTGKAATYHVDRSGNVHHQFQKLLTEFNKSTDAYELKIANKLFGEKTYLFLQEYLDAIKKFYQTSVESVDFANAPEESRKKINSWVESQTNEKIKNLIPEGNIGSNTTLVLVNAIYFKGQWEKKFNKEDTKEEKFWPNKNTYKSIQMMRQYTSFHFASLEDVQAKVLEIPYKGKDLSMIVLLPNEIDGLQKLEEKLTAEKLMEWTSLQNMRETRVDLHLPRFKVEESYDLKDTLRTMGMVDIFNGDADLSGMTGSRGLVLSGVLHKAFVEVTEEGAEAAAATAVVGFGSSPTSTNEEFHCNHPFLFFIRQNKTNSILFYGRFSSP
modifications: full-length
B7: P12814 (protein, UniProt P12814 1-892, looked up)
chain: MDHYDSQQTNDYMQPEEDWDRDLLLDPAWEKQQRKTFTAWCNSHLRKAGTQIENIEEDFRDGLKLMLLLEVISGERLAKPERGKMRVHKISNVNKALDFIASKGVKLVSIGAEEIVDGNVKMTLGMIWTIILRFAIQDISVEETSAKEGLLLWCQRKTAPYKNVNIQNFHISWKDGLGFCALIHRHRPELIDYGKLRKDDPLTNLNTAFDVAEKYLDIPKMLDAEDIVGTARPDEKAIMTYVSSFYHAFSGAQKAETAANRICKVLAVNQENEQLMEDYEKLASDLLEWIRRTIPWLENRVPENTMHAMQQKLEDFRDYRRLHKPPKVQEKCQLEINFNTLQTKLRLSNRPAFMPSEGRMVSDINNAWGCLEQVEKGYEEWLLNEIRRLERLDHLAEKFRQKASIHEAWTDGKEAMLRQKDYETATLSEIKALLKKHEAFESDLAAHQDRVEQIAAIAQELNELDYYDSPSVNARCQKICDQWDNLGALTQKRREALERTEKLLETIDQLYLEYAKRAAPFNNWMEGAMEDLQDTFIVHTIEEIQGLTTAHEQFKATLPDADKERLAILGIHNEVSKIVQTYHVNMAGTNPYTTITPQEINGKWDHVRQLVPRRDQALTEEHARQQHNERLRKQFGAQANVIGPWIQTKMEEIGRISIEMHGTLEDQLSHLRQYEKSIVNYKPKIDQLEGDHQLIQEALIFDNKHTNYTMEHIRVGWEQLLTTIARTINEVENQILTRDAKGISQEQMNEFRASFNHFDRDHSGTLGPEEFKACLISLGYDIGNDPQGEAEFARIMSIVDPNRLGVVTFQAFIDFMSRETADTDTADQVMASFKILAGDKNYITMDELRRELPPDQAEYCIARMAPYTGPDSVPGALDYMSFSTALYGESDL
modifications: full-length
B8: Q16643 (protein, UniProt Q16643 1-649, looked up)
chain: MAGVSFSGHRLELLAAYEEVIREESAADWALYTYEDGSDDLKLAASGEGGLQELSGHFENQKVMYGFCSVKDSQAALPKYVLINWVGEDVPDARKCACASHVAKVAEFFQGVDVIVNASSVEDIDAGAIGQRLSNGLARLSSPVLHRLRLREDENAEPVGTTYQKTDAAVEMKRINREQFWEQAKKEEELRKEEERKKALDERLRFEQERMEQERQEQEERERRYREREQQIEEHRRKQQTLEAEEAKRRLKEQSIFGDHRDEEEETHMKKSESEVEEAAAIIAQRPDNPREFFKQQERVASASAGSCDVPSPFNHRPGSHLDSHRRMAPTPIPTRSPSDSSTASTPVAEQIERALDEVTSSQPPPLPPPPPPAQETQEPSPILDSEETRAAAPQAWAGPMEEPPQAQAPPRGPGSPAEDLMFMESAEQAVLAAPVEPATADATEIHDAADTIETDTATADTTVANNVPPAATSLIDLWPGNGEGASTLQGEPRAPTPPSGTEVTLAEVPLLDEVAPEPLLPAGEGCATLLNFDELPEPPATFCDPEEVEGESLAAPQTPTLPSALEELEQEQEPEPHLLTNGETTQKEGTQASEGYFSQSQEEEFAQSEELCAKAPPPVFYNKPPEIDITCWDADPVPEEEEGFEGGD
modifications: full-length

Tested on: proteins that co-immunoprecipitated with DUX4-CTD constructs expressed in MB135 myoblasts
Experiment: LC-MS of proteins co-immunoprecipitated with DUX4-CTD (Table 1) and western validation
Format: binding, human
Design: key to 4. mL1dL2 + Dox + IFNG / 4. + IFNG mix / 4. longCTD + Dox + IFNG / 3. + IFNg + Dox longCTD / 3. + Dox longCTD / 3. + IFNG longCTD: peptide-spectrum matches (PSMs) per protein
Details: for 4. longCTD + Dox + IFNG: LC-MS counts of the listed protein co-immunoprecipitated with DUX4-CTD bait longCTD, experiment 4, Dox + IFNG; for 3. + IFNg + Dox longCTD: experiment 3, IFNg + Dox; for SUM of PSMS: sum over all samples; for 3. + Dox longCTD: experiment 3, Dox only
Method in brief: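 FLAG-tagged DUX4-CTD expressed in doxycycline-induced MB135 myoblasts, some also IFNG-treated; nuclear lysates in pH 7.4 NP-40 IP buffer were pre-cleared, then anti-FLAG immunoprecipitated 3 h at 4 °C. For LC-MS, FLAG-peptide elution, in-gel trypsin digest, Orbitrap analysis; proteins with ≥2 PSMs in both experiments categorised and ranked by total PSMs.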

Molecule | 4. longCTD + Dox + IFNG | 3. + IFNg + Dox longCTD (bait longCTD) | SUM of PSMS | 3. + Dox longCTD (bait longCTD) | 3. + IFNG longCTD (bait longCTD, experiment 3, IFNG only, no doxycycline (bait at background level))
B1 | 3 | 1 | 4 | – | –
B2 | 13 | 62 | 152 | 30 | 4
B3 | 16 | 3 | 42 | – | –
B4 | 2 | – | 4 | 2 | –
B5 | 2 | 1 | 4 | – | –
B6 | – | 2 | 4 | – | –
B7 | 34 | 13 | 82 | 4 | –
B8 | 33 | 13 | 51 | 3 | –
